Literature values in PMC2924770.
Where two headings read alike, the source gives them in different places.

Assays:
[1] = target: hemoglobin (Homo sapiens) (UniProt P69905)
[2] = target: hemoglobin (Homo sapiens) (UniProt P69905); remark: listed apart in the source

Substance	Kd [1] [nM]	Kd [2] [nM]
RgpA (from UniProt P28784)	3.72	–
Kgp (from UniProt B2RLK2)	–	3.92
